In patent US20260209324A1 one finds adhesion of THP-1 cells on TNF-α stimulated TEC monolayers (% inhibition of adhesion) data, which are given here for one substance.

The assay has as its target LFA-1 on immune cells (THP-1 cells, activated T cells) (human) (UniProt P20701).

The substance “human recombinant EDIL3 (from UniProt O43854) (ligand)” came in with an adhesion of THP-1 cells on TNF-α stimulated TEC monolayers (% inhibition of adhesion) of 55.
